Here are results for 2 molecules from US20140241987A1.

Residue numbers refer to the chain shown, from its start.

Experiment [1] addresses α-synuclein fibrils (human), P37840. The experiment is described as follows: inhibition ELISA, fibrils against monomers. The note with it: remark: other sources report otherwise. For orientation: In an ELISA, binding on a coated surface is turned into a signal by an enzyme label.
Experiment [2] has the same target. Kind of experiment: SPR, BIAcore X100, fibrils immobilised on CM5, mAb injected. The note with it: remark: other sources report otherwise.

In general, Kd refers to the concentration at which binding is half-saturated. For orientation: koff means the rate constant with which the complex falls apart. Read a low koff as a long-lived complex. The kon is a measure of how fast the partners come together. Low values mean slower complex formation, high ones faster complex formation.

B1: Syn-F1 (antibody)
chain 1: DVQLVESGGDLVQPGGSRKLSCAASGFTFSSFGMHWVRQAPEKGLEWVAYINSGSSTIYYADTVKGRFTISRDNPKNTLFLQMTSLRSEDTAMYYCARGNNPGTGYYYSMDYWGQGTSVTVSS
chain 2: not shown
With B1, the Fold Affinity to Fibrils in experiment [1] is 16600 fold. Moreover, in experiment [2], the equilibrium dissociation constant (Kd) was found to be 0.127 nM, the off-rate (koff) stood at 0.00156 s⁻¹ and the on-rate (kon) came to 1.23e+07 M⁻¹ s⁻¹.

B2: Syn-F2 (antibody)
chain 1: B1 chain 1 with D10G, N52S, S109A
chain 2: not shown
In the case of B2, the Fold Affinity to Fibrils in experiment [1] stood at 3140 fold. In experiment [2], this molecule registered a Kd of 2.69 nM, a koff of 0.00338 s⁻¹ and a kon of 1.26e+06 M⁻¹ s⁻¹.
